This is an account of results in patent US20240052042A1 (Novartis, published 2024).

For assay [1], the target named is T1, human NPR3 in the presence of ANP (human, UniProt P17342 27-481; P01160 124-151, limits assumed).
T1 construct: also called hNPR3 + 100 nM ANP
T1 sequence (looked up): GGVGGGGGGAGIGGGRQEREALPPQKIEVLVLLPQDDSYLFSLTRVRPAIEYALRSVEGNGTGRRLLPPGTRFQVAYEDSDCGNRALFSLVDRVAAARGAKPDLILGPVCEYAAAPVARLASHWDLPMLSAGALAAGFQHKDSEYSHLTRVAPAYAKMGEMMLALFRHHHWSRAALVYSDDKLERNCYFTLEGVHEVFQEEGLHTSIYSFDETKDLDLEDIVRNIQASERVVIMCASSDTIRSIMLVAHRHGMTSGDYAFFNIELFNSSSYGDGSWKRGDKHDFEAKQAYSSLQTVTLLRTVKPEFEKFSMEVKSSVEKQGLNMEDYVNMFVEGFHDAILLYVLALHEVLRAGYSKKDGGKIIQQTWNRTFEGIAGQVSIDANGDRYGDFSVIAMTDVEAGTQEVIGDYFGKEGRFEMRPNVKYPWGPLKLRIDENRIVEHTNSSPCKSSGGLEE
T1 sequence (peptide, looked up): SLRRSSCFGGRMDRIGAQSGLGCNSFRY
The experiment in a line: FabCys affinity determination.

Assay [2] concerns the target T2, human NPR3 (counter target) (human, UniProt P17342 27-481, limits assumed).
T2 construct: Pannings used hNPR3-hFc; also called hNPR3; hNPR3-hFc
T2 sequence (looked up): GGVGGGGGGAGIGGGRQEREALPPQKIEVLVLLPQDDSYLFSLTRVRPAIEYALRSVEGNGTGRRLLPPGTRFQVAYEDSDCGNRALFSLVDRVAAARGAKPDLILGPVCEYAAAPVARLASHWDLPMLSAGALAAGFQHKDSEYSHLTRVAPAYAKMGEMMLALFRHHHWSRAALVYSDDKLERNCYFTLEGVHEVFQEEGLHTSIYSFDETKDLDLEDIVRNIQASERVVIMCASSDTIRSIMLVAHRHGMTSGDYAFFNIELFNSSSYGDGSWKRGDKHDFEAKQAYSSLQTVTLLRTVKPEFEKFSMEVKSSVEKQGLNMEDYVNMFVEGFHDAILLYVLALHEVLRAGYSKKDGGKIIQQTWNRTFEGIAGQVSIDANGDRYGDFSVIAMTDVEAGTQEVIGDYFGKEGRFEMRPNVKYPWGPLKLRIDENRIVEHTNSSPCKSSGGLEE
The experiment in a line: FabCys affinity determination.

In assay [3] the target is T3, human NPR1 on CHO-K1 cells (human, UniProt P16066 33-1061).
T3 sequence: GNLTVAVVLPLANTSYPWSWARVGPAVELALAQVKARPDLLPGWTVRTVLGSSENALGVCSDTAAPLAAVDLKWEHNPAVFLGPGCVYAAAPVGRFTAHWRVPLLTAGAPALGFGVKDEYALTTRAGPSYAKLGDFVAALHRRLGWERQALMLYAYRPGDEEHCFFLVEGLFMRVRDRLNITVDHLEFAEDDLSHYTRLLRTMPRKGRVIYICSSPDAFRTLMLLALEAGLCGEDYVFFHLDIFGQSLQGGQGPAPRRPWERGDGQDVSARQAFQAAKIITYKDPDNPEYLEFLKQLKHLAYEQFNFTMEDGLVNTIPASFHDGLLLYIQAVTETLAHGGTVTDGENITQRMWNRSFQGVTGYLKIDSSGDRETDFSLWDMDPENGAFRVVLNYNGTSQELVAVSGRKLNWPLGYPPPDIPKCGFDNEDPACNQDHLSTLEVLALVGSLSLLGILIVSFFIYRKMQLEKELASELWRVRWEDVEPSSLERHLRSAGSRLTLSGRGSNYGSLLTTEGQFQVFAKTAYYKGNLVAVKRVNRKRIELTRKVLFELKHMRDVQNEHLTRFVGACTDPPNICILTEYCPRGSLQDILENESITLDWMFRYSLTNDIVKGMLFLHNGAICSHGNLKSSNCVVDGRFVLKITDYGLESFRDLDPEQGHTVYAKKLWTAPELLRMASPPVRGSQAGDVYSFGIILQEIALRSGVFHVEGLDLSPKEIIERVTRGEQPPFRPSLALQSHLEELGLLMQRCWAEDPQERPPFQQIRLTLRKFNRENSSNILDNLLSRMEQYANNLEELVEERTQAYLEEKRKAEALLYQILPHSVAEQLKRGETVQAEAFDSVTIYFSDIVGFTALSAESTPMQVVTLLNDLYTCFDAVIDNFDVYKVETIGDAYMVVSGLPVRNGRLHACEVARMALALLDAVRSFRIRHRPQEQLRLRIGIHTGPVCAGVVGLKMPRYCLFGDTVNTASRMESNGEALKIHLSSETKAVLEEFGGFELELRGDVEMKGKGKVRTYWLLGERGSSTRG
The experiment in a line: cell-based or functional assay.

Assay [4] has as its target T4, rNPR1-ANP complex (rat, UniProt P01160 124-151 (human entry), limits assumed).
T4 construct: rNPR1 antigen in the presence of ANP; also called rNPR1 + 100 nM ANP
T4 sequence: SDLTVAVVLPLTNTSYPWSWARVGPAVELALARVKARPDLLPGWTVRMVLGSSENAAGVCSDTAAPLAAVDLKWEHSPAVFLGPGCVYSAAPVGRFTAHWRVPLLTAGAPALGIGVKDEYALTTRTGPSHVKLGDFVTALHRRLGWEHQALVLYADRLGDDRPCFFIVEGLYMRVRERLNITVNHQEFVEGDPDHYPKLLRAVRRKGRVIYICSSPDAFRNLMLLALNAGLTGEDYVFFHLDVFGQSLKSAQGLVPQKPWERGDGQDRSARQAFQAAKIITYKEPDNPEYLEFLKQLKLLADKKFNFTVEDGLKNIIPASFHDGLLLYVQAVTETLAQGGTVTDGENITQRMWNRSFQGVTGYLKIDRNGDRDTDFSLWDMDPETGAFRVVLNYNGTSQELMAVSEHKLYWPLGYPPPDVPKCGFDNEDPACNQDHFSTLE
T4 sequence (peptide): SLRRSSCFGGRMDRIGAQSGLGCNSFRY
Description: FabCys affinity (Biacore per paragraph 323). In general terms: In SPR one partner is held on a chip, and binding of the other changes the refractive index at the surface.

Assay [5] deals with T5, hNPR1-ANP complex (human, UniProt P01160 124-151, limits assumed).
T5 construct: hNPR1 antigen in the presence of ANP; also called hNPR1 + 100 nM ANP
T5 sequence: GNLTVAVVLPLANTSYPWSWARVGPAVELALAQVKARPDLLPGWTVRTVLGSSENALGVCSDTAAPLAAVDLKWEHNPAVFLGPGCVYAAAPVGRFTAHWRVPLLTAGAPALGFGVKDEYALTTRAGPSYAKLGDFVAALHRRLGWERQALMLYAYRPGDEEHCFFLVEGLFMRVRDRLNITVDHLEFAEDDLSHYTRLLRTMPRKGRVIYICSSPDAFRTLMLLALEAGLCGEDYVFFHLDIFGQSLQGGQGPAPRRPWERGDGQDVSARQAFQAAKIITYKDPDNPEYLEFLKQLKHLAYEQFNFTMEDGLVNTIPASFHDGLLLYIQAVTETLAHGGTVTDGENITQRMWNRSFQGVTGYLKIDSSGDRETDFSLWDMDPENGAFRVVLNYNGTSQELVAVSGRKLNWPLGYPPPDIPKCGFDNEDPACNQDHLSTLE
T5 sequence (peptide): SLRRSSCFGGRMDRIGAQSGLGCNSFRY
Description: FabCys affinity (Biacore per paragraph 323).

Assay [6] deals with T6, rat NPR1 (rNPR1) (rat, UniProt P18910 29-469, limits assumed).
T6 construct: Soluble antigen
T6 sequence: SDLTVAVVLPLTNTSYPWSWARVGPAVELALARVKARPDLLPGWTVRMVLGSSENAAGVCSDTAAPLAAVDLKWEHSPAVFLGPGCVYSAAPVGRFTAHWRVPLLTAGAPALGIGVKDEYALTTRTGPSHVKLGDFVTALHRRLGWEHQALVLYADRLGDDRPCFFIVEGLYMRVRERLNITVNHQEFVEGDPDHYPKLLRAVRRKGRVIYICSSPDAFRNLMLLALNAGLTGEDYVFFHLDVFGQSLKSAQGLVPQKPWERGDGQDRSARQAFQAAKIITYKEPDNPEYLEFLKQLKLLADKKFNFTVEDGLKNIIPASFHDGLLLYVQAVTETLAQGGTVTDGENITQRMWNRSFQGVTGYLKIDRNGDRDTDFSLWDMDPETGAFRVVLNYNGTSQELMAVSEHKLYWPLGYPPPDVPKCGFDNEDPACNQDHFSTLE
The experiment in a line: FabCys affinity (Biacore per paragraph 323).

The target of assay [7] is T7, human Natriuretic Peptide Receptor 1 (hNPR1) (human, UniProt P16066 33-473, limits assumed).
T7 construct: pannings used NPR1-hFc; also called NPR1-hFc
T7 sequence: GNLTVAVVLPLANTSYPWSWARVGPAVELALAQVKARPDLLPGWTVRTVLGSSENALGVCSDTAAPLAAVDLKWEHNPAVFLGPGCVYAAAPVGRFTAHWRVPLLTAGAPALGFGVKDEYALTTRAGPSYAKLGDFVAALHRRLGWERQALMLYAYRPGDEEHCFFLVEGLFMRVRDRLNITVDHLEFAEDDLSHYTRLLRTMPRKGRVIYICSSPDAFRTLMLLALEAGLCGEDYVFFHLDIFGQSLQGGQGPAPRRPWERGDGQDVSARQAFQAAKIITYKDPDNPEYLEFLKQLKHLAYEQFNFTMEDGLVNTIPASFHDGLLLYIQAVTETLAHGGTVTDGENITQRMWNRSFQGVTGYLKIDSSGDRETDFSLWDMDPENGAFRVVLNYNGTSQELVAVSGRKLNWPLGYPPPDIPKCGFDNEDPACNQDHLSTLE
Description: FabCys affinity (Biacore per paragraph 323).

Assay [8] concerns the target T4, rNPR1-ANP complex. The experiment in a line: FabCys, parental value by Biacore, as in Table 5.
Assay [9] concerns the target T5, hNPR1-ANP complex. The experiment in a line: FabCys, parental value by Biacore, as in Table 5.
In assay [10] the target is T6, rat NPR1 (rNPR1). The experiment in a line: FabCys, parental value by Biacore, as in Table 5.
For assay [11], the target named is T7, human Natriuretic Peptide Receptor 1 …. Description: FabCys, parental value by Biacore, as in Table 5.

B1: WW03 (FabCys format) (Fab, V domains shown)
VH: QVQLLESGGGLVQPGGSLRLSCAASGFTFSSYWMNWVRQAPGKGLEWVSAISSDGSYTYYADSVKGRFTISRDNSKNTLYLQMNSLRAEDTAVYYCARDRYSMIYSYGAGAFDYWGQGTLVTVSS
VL: DIQMTQSPSSLSASVGDRVTITCRASQGISSYLAWYQQKPGKAPKLLIYTASTLQSGVPSRFSGSGSGTDFTLTISSLQPEDFATYYCMQSYEKPRTFGQGTKVEIK
notes: Monovalent FabCys
One may read the Kd as a measure of binding affinity in units of concentration. In the case of B1, the binding result in [1] and in assay [2] was “no binding” each time. Moreover, the “cGMP conc [nM] at 2 µM FabCys, +0.075 nM ANP” value in [3] worked out at 108 nM. For the same molecule, the “cGMP conc [nM] at 2 µM FabCys, without ANP” value in assay [3] is 32 nM. For the same molecule, the Kd in the assay with rNPR1-ANP complex [4] worked out at 1 nM; with hNPR1-ANP complex [5], 0.1 nM; in the assay with rat NPR1 (rNPR1) [6] it was 2600 nM; in assay [7], 1000 nM; with rNPR1-ANP complex [8], 1 nM; with hNPR1-ANP complex [9], 0.1 nM. In addition, the Kd in the assay with rat NPR1 (rNPR1) [10] came to 2600 nM; in [11], 1000 nM.
